Laboratory results as given in US20110020361A1 (GOVERNMENT OF THE UNITED STATES OF AMERICA AS REPRESENTED …, published 2011).

Target: T1, recombinant human mesothelin (amino acids 296-600 of SEQ ID NO: 4) (human, UniProt Q13421 296-600)
T1 construct: Secreted from SF9 insect cells (baculovirus vector pAcGP67) and purified by nickel column and gel filtration; It was coated on ELISA plates and, biotin-labelled, used for panning; also called recombinant mesothelin; purified mesothelin
Assay: ELISA, recombinant mesothelin coated on plate, anti-FLAG-HRP detection
Method: Antigen (mesothelin) diluted in PBS was coated on narrow-well 96-well plates at 50 ng/well overnight at 4° C. Wells were blocked with 100 μl of 4% milk/PBS (MPBS) for 1 hour at 37° C. […] Fifty μl of diluted Fab was added to duplicate wells. For competition ELISA, designated concentrations of competing IgG were included in all Fab solutions. After 2 hours of incubation at 37° C., the wells were washed with PBST (PBS+0.05% Tween 20) 4 times. […] Wells were washed again with PBST. Substrate ABTS was added (50 μl/well), and the reaction was read at A405 nm. For ELISA with IgG, a goat anti-human Fc IgG conjugated with HRP was used at 1:1000.

B1: Fab m912 (Fab, V domains shown)
VH: QVQLQESGPGLVKPSETLSLTCTVSGGSVSSGSYYWSWIRQPPGKGLEWIGYIYYSGSTNYNPSLKSRVTISVDTSKNQFSLKLSSVTAADTAVYYCAREGKNGAFDIWGQGTMVTVSS
VL: not shown
notes: Human Fab from a naive Fab phage library, expressed in E. coli HB2151; also called clone m912; mesothelin-specific antibody m912
B1 gave an EC50 of 20 nM.
